Reference: patent US20240207383

Biological target: ComPC1-CRM197 fusion protein

B1: PglS oligosaccharyltransferase (protein)
chain: MNSIFKKIKNYTIVSGVFFLGSAFIIPNTSNLSSTLYKELIAVLGLLILLTVKSFDYKKILIPKNFYWFLFVIFIIFIQLIVGEIYFFQDFFFSISFLVILFLSFLLGFNERLNGDDLIVKKIAWIFIIVVQISFLIAINQKIEIVQNFFLFSSSYNGRSTANLGQPNQFSTLILITLFLLCYLREKNSLNNMVFNILSFCLIFANVMTQSRSAWISVILISLLYLLKFQKKIELRRVIFFNIVFWTLVYCVPLLFNLIFFQKNSYSTFDRLTMGSSRFEIWPQLLKAVFHKPFIGYGWGQTGVAQLETINKSSTKGEWFTYSHNLFLDLMLWNGFFIGLIISILILCFLIELYSSIKNKSDLFLFFCVVAFFVHCLLEYPFAYTYFLIPVGFLCGYISTQNIKNSISYFNLSKRKLTLFLGCCWLGYVAFWVEVLDISKKNEIYARQFLFSNHVKFYNIENYILDGFSKQLDFQYLDYCELKDKYQLLDFKKVAYRYPNASIVYKYYSISAEMKMDQKSANQIIRAYSVIKNQKIIKPKLKFCSIEY
glycosylation with CPS8, Western blot of periplasmic extracts (anti-His): the ComPC1-CRM197 was also glycosylated by PglS
